Data reported in publication PMC9839713, “Arabidopsis DXO1 activates RNMT1 to methylate the mRNA guanosine cap” (Nature Communications, 2023).

Target: T1, His-DXO1 (Arabidopsis thaliana, UniProt Q8RY73 1-544)
T1 construct: also called His-tagged DXO1; source: E. coli BL21 Rosetta, purified (Ni-NTA); not shown: His6, N-terminal, kept
Experiment: pull-down; GST pull-down: 2 ug GST-RNMT1 with His-DXO1 or His-cDXO1 on GST agarose beads, 20 mM Tris-HCl pH 7.5, 100 mM NaCl, 1 mM DTT, 1 mM EDTA, 1 h; in the presence of RNase A; eluted with 10 mM GSH; blots with anti-His and anti-GST
Details: both partners purified

T1 sequence (Q8RY73 whole entry): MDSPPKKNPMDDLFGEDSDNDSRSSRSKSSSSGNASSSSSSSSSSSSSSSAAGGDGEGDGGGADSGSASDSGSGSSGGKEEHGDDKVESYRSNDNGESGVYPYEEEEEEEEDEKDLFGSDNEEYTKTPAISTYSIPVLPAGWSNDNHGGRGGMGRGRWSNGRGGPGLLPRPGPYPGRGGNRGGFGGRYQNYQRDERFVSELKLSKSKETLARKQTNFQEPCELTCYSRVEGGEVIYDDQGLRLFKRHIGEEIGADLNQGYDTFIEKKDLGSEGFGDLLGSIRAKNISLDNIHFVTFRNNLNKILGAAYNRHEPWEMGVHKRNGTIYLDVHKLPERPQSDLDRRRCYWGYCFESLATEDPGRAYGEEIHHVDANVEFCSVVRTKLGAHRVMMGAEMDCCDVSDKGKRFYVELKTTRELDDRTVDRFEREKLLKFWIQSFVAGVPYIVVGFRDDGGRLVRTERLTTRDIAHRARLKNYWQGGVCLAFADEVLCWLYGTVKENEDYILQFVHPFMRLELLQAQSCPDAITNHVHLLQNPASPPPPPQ

binding result: binds
B1: GST-RNMT1 (natural protein, Arabidopsis thaliana, UniProt Q9LHQ7 1-370, looked up)
chain: MKRGFSDSPSSSAPPPSSRFKSNPEGDSQFLEDETTKNFARKVADHYSRRTNQTLEEREASPIIHLKKLNNWIKSVLIQLYARPDDAVLDLACGKGGDLIKWDKARIGYYVGIDIAEGSIEDCRTRYNGDADHHQRRKKFSFPSRLLCGDCFEVELDKILEEDAPFDICSCQFAMHYSWTTEARARRALANVSALLRPGGVFIGTMPDANVIIKKLREAEGLEIGNSVYWIRFGEEYSQKKFKSSSPFGIEYVFHLEDAVDCPEWIVPFNVFKSLAEEYDLELVFVKNSHEFVHEYMKKPEFVELMRRLGALGDGSNDQSTLSADEWEAAYLYLSFVLRKRGESDGARRSGRRKNGKMNLSKDDVLYIDS
notes: The methods name a 'GST-DXO1' fusion in pGEX-4T-1 and RNMT1 in pET28a, while results, legend and pull-down methods use GST-RNMT1; In the functional rows the RNMT1 was the recombinant protein from pET28a (6X His); also called GST-tagged RNMT1; source: E. coli BL21 Rosetta, purified (GST agarose beads); not shown: GST, N-terminal, kept
